This note sets out measurements from the DeepSol protein solubility set.

The nature of this series: soluble on expression in E. coli; label from the status in PepcDB or PDB records.
In the case of “MGHHHHHHSHMSKAIKQNLADSKKMSAELFCLTYGAMVTEMLKDYEDPKDVTIQLDKMGFNMGTRLADDFLAKNANVPRCVDTRQIADVLCRNAIPCYLGISATASSWTSGDREFTITLEANPLTELVQVPAHLVSAGLSYSQLIAGAIRGALEAVHFKVYASATDTGANTEIRIRFDQVLKDSLPAGEDD”, the “soluble on expression in E. coli” value was “soluble”. With “MGHHHHHHSHMSWWDYGYQIAGMANRTTLVDNNTWNNSHIALVGKAMSSNETAAYKIMRTLDVDYVLVIFGGVIGYSGDDINKFLWMVRIAEGEHPKDIRESDYFTPQGEFRVDKAGSPTLLNCLMYKMSYYRFGEMQLDFRTPPGFDRTRNAEIGNKDIKFKHLEEAFTSEHWLVRIYKVKAPDNRETLDHKPRVTNIFPKQKYLSKKTTKRKRGYIKNKLVFKKGKKIFKKTV”, the “soluble on expression in E. coli” value was “not soluble”. For “MGHHHHHHSHMTLRCLEPSGNGGEGTRSQWGTAGSAEEPSPQAARLAKALRELGQTGWYWGSMTVNEAKEKLKEAPEGTFLIRDSSHSDYLLTISVKTSAGPTNLRIEYQDGKFRLDSIICVKSKLKQFDSVVHLIDYYVQMCKDKRTGPEAPRNGTVHLYLTKPLYTSAPSLQHLCRLTINKCTGAIWGLPLPTRLKDYLEEYKFQV” the value was “not soluble”. As for “MGHHHHHHSHMVSSNFWFKYPKTCSKVEHFVSILGKCFESPWTTKALSETACEDSEENKQRITGAQTLPKHVSTSSDEGSPSASTPMINKTGFKFSAEKPVIEVPSMTILDKKDGEQAKALFEKVRKFRAHVEDSDLIYKLYVVQTASPFPNQ”, the “soluble on expression in E. coli” value is recorded as “not soluble”. As to “MGHHHHHHSHMWKVVNLPTDLFNSVMNVGRFTEEIEWLKFLALACSALGVTITKTLKIVCEVLSCDHNGGLPRIPFSTFQFLYTYIAEVDGEICASHVSRMLNYIEQEVIGPDGLITVNDFTQNPRVWLE”, the “soluble on expression in E. coli” value was “not soluble”.

As for “MGHHHHHHSHMYLRHDKPPYTYLAMIALVIQAAPSRRLKLAQIIRQVQAVFPFFREDYEGWKDSIRHNLSSNRCFRKVPKDPAKPQAKGNFWAVDVSLIPAEALRLQNTALCRRWQNGG”, the “soluble on expression in E. coli” value is recorded as “soluble”. For the sequence “MGHHHHHHSHRSSDCPYIVQFYGALFREGDCWICMELMSTSFDKFYKYVYSVLDDVIPEEILGKITLATVKALNHLKENLKIIHRDIKPSNILLDRSGNIKLCDFGISGQLVDSIAKTRDAGCRPYMAPERIDPSASRQGYDVRSDVWSLGITLYELATGRFPYPKWNSVFDQLTQVVKGDPPQLS”, the “soluble on expression in E. coli” value is given as “not soluble”. Consider “MGHHHHHHSHVFKIEDKIGEGTFSSVYLATAQLQVGPEEKIALKHLIPTSHPIRIAAELQCLTVAGGQDNVMGVKYCFRKNDHVVIAMPYLEHESFLDILNSLSFQEVREYMLNLFKALKRIHQFGIVHRDVKPSNFLYNRRLKKYALVDFGLAQGTHDTKIELLKFVQSEAQQERCSQNKSHIITGNKIPLSGPVPKELDQQSTTKASVKRPYTNAQIQIKQGKDGKEGSVGLSVQRSVFGERNFNIHSSISHESPAVKLMKQSKTVDVLSRKLATKKKAISTKVMNSAVMRKTASSCPASLTCDCYATDKVCSICLSRRQQVAPRAGTPGFRAPEVLTKCPNQTTAIDMWSAGVIFLSLLSGRYPFYKASDDLTALAQIMTIRGSRETIQAAKTFGKSILCSKEVPAQDLRKLCERLRGMDSSTPKLTSDIQGHASHQPAISEKTDHKASC”, for which the “soluble on expression in E. coli” value is reported as “soluble”. In the case of “MGHHHHHHSHVGFDTGFMQFFRVREKSMTMAELLIGSRKTYGLNLIGGVRRDILKEQRLQTLKLVREMRADVSELVEMLLATPNMEQRTQGIGILDRQIARDLRFDHPYADYGNIPKTLFTFTGGDVFSRVMVRVKETFDSLAMLEFALDNMPDTPLLTEGFSYKPHAFALGFVEAPRGEDVHWSMLGDNQKLFRWRCRAATYANWPVLRYMLRGNTVSDAPLIIGSLDPCYSCTDR”, the “soluble on expression in E. coli” value is on record as “not soluble”. On to “MGITSAGMQSRDAECGERIFTRTVRQVKQQTTVHYFVSPPRPPVKTNPQAKTLISTRLEVATRKKRRVLFILEHHHHHH”, for which the “soluble on expression in E. coli” value is on record as “not soluble”. With “MGKFFFFGFVGLLLSWGALYYRYSDEKNTSARKYRFDPPPALVGNLFINAGLEKAEHILDGKIVGPESMVVDDEAIYVSVNDAKVLKIVDGRVVSKASYSEKSKFFPDCGHFDTEPECGRPLGIRRLVAGKPKFVVCDAYLGVYIVDFTDEQNPISTQILDSKVPIDGLKPRFLNDLDVISEDELIISDSSTRHDRRHFMAAILEHQADGRIFHLKISTKSVKVLADKLYFPNGIQLTEDKKSVIFAECSMARIKKLTIASKKVEMFAANLPGLPDNIRSSGRGTYWVGLTATRSATHPSLLDRLGSLPGIRQFLVDIVPGPYWKPLLGLFKNPHSIIIELDSVGKIVRSLHDVTGKHVGDASQVTEHNGHLYIGSFADHYIAKVKL”, the “soluble on expression in E. coli” value was “not soluble”. For “MGKFMMEKFVQTVSSVNYNKGVFSLYFVGQDQKNMAHGVMAESDNDLELKQVVHMPASGFMYMVSMIKNMLEDPRMEAEFNKLVAAGFLPAGDATANSAEDAAAEEKTAAKKRPAQVKK” the value was “not soluble”; for “MGKKNEKIVEEAEKVEAETMEVDEQPQETPQVDDEEDLNVPSKKKMEILDPKSFEQDPSNLTLIMYEEDHTIGNSIKHILSRMDEVEFCGYNVPHPLEDKILFRVQTKDGINALEVLAKAFESVEQIFSTIRGKFEESYEQSQS”, “soluble”. For the sequence “MGKRFSSFQAAQIRIARPTGQLDEIIRFYEEGLCLKRIGEFSQHNGYDGVMFGLPHADYHLEFTQYEGGSTAPVPHPDSLLVFYVPNAVELAAITSKLKHMGYQEVESENPYWSNGGVTIEDPDGWRIVFMNSKGISGK”, the “soluble on expression in E. coli” value is on record as “soluble”. For “MGKSSNIVFDRIKEERQMLSFFKIFQRADLSSDCMRALPYSFISKVSEKDFSYKMVIRAQWGKTWDVEVSKNPTYYYIETRGWDLFVSDNALGQNEFITFTHRGNMVFHVNIYEQNGLEMRKPRKFQTMGPSSGIKKEEGENSLIDVKKEEESDESPGRAEFLVRKKKTEDSKSSKKKMTRNKVKKKSKSKSKQVLDGVPEFKITIRKSYLKFLAIPKHFVDDHIPNKSKIFTIRHPNGGSWKVLCLVREIRTIFSGGYSKLAREFPLMVGDKCTFKLIKPFEFVLLTSKKNREKMDQCMID”, the “soluble on expression in E. coli” value is “soluble”.

In the case of “MGKVLIIGAGGVGTVVAKKVAMNTDVFTEIMLASRTRSKCDKIASEIKNVRIQTAQVDADNVEELVALFESFKPELVINVALPYQDLTIMDACLRCGVNYLDTANYEPLDEAKYEYSWQWAYQDRFRK”, the “soluble on expression in E. coli” value was “not soluble”.

On to “MGKYKFIEERVETMSSSELKIFLNILKSRSKELMSTLESVRGIKDLEAVCKSTQKLNNRVSEFDGGSFLILVVGPVKSGKSTLVNLIAHAHVSPTHFLECTVRPSIISKGQEESITRIFSVADKARKVEQFDSVIDSLRGFEKLENISEISIEKKELNDANLEECVSLALEESVINTDHTLVTSITTSGGELLKDNIFLVDMPGLDGGYVNLDNPIYETISQRADFVIFVQSSNSAISKVSNRFLKLLQENNPKVPVCLLHNVFEAAYWHSEEEKQAVIKAQVEFAENEMGRRNFQLKENIYSLNLGKVADAASYEGMEDLQEEAAKFQRFEKDLYGKVISNSTDIRLRSVIGRTLNQLEKLDNLVGESIGQQEAIDIEYQAAATSFDELLRQASELSYDGSDFRKMVQVYMDDDLKEFTEIVREYYDSGCNSAFAGGAKGKDATRSLVTKFMTDSSAAIKSKFLDSHEHSLARQYLRKLSNLKDDVAFIEKMNTFLKQKGCAPFDSVPQVTDFPVVDFDLQGAFDVKNINNPTVPHIGIPNPFGTYSTMEIQSFLRKAMECITGIDHTHTGKTIKGYLQLTVGKSIYKAANDLYDQYVPVRKQSIIDFLEQQKTMYLNALVSDKEEFDRKDALLRSINAQVQSFKDSIR”, for which the “soluble on expression in E. coli” value is listed as “not soluble”. Take “MGLCMMRTLQSAPSSPLAMPEIQFCLLPDACRPLLGKFYREHQSSMRAASKGQAWVAKQEEIIGALCLTPVADGHWLTGLFVAPPLRGNAVAQRLIDAALLPLSGPVWLFCHPDLQGFYRLAGFETAQRLPQALGERLMRYSRSKPLVALHREA”: the “soluble on expression in E. coli” value is “not soluble”.

As for “MGLFFAQNMMYNHTITVYDRNYELVKVIPDEVDLSKYGHSRFKGKYRGAPVEASFSHNGKYAWISNYQMYGPGFNNPGSDKCHPSQKTDKSFLYRINTETLKIDRVIPVGSVPKFVATSTDENLILVSNWCSWDLSVVDINQNQEIKRIKLGPYPRGIVVDPASETAYVAVMGSYNIAKVNLRDFSVQWLRNIGSSPRHLNIDPAGKYLYASLNGEGKIAKISLPQGNLVKKIATGNAPRSMVLSANGQTLYVVNYGEDTVSKVRTSDMKVLQKVKVEPDPIGITYDPQTREVWVACYSGNIMIFQDLEHHHHHH”, the “soluble on expression in E. coli” value is “soluble”. With “MGLSDEQLGKIVRFHLKEDKQAHERIKQKMMESMKAFRKAVGEPATDDETLRKLGQAHIDSFNEMVKYHIDERKAVRSILTPEQIGKLEHHHHHH”, the “soluble on expression in E. coli” value was “not soluble”.

Consider “MGLVDYAGSESESDEEMETQQKNSLAPQNQQLVDDEAFFDNTEKSSSPNMNKEDVLEELVKPKEWEVKLAEKARRKLEKKALKKAQKEERKKEKKLAKKAMKVEKIPKIGGGIQKAKGKVIISAFGALAGITGENSSDDSDNEGAAVATVKPKLGNSFLSNLPAPKGRDNRSDGANVFDKSMVPHSVSKKATPAAAPVFKPAPAPKLPDDSDDDDDGPTDFFGFSSAPTRKESEIPSEIPYMTMNSSMDVVGPSRPDEGMDPRQMYEMPEEEEDVQEGPSASNAWLHRKINDEQAHKLLMRFSHDIGQEERRSINEMANSIVDVNVDDALGPDVKTNIIKNLGHRAFVEATSAPLPQVQTQGQMSRRKHQITYLASLAVSREEQLKDQWADQKQSKRMARQKYGF”, for which the “soluble on expression in E. coli” value is “not soluble”. On to “MGMTPAQEVISYLINAAIGVSSTSSRPFRDAPPGCPDTLLVQCVKWFFRNGDFSNFYEDIKYLVKGKSLAGFVNSHLMVCPELIRIIVENADNKSRRVKFLIKKDEFAICVGRGRLITFPFTKDMEEPACILAEYTELLFSFPHYDIEYSFEGSYGLSRNMDLTETHIMLLSKLTPSMFAEKARPRRVRERNGRLAVRMSRISWNRSGLYYNAIIQFFESLRGTVITQGEQPLCEKSVTYQEMLKHTLAHPGVHQLDSRPNFQWKISMRKTRKND”, for which the “soluble on expression in E. coli” value is on record as “not soluble”.

Consider “MGNCLSTSDPSHEDVSKKLPKALPVDAAFKFPSPLPTFTRGDGFAKGTIDLGGGLEVSQVSTFNKVWSTYEGGPDNLGATFFEPSSIPSGFSILGYYAQPNNRNLFGWVLTARDLSSNTLKPPVDYTLVGNTESLKIKQDGTGYFWQPVPPDGYQAVGLIVTNYSQKPPLDKLRCIRSDLTEQCEADTWIWGTNGVNISNLKPTTRGTQATGVYVGTFTWQTQNSSPPSLSCLKNTKLDFSTMPNGSQIEELFQTFSPCIYFHPDEEYLPSSVTWYFNNGALLYKKGEESKPIPIESNGSNLPQGGSNDGSYWLDLPIDKNGKERVKKGDLQSTKVYLHIKPMLGATFTDISIWIFYPFNGPAKAKVKFVNLPLGRIGEHIGDWEHTTLRISNFTGELWRVFLSQHSGGIWIDACDLEFQDGGNNKFVAYASLHGHAMYPKPGLVLQGDDGVGIRNDTGKGKKVLDTGLGYEVIAAEYDGGGVVEPPWVKYFRKWGPKIDYNVDDEVKSVERILPGLLKKAFVKFVKKIPDEVYGEDGPTGPKLKSNWAGDES”, for which the “soluble on expression in E. coli” value is listed as “not soluble”.
